# Measurements from patent US20180037638A1 (SORRENTO THERAPEUTICS, published 2018).
# B1: E7 (antibody, V domains shown)
# VH: EVQLVQSGAEVKKPGASVRVSCKTSGYSFTSYDINWVRQTTGQGLEWMGWVNPTSGSTGYAQKFQGRVTMTANTAINTAYMELRDLRSEDTAVYFCVRDVPFDPWGQGTLVTVSS
# VL: LQSVLTQPASVSGSPGQSITISCTGTSSDVGKYTFVSWYQQHPGKAPKVMVYEVNKRPLGVSPRFSGSKSGNTAYLTISGLQAEDEADYYCSSYTSSSTVVFGGGTKLTVL
# B2: C7 (antibody, V domains shown)
# VH: EVQLVQSGAEMKKPGASMKVSCKTSGYTFARKYMHWLRQAPGQGLEWMGIINPTGGTKSYAPKFQGRVTMTSDMSTNTVYMELNSLRSEDTAVYYCVSDDEEPVWGQGTMVTVSS
# VL: QSALTQPPSVSKGLRQTATLTCTGNSNNVGSQGAAWLQQHQGHPPKVLSYRNNNRPSGISERFSASRSGNTASLTITGLQPEDEGDYYCSAWDSSLSAPVFGGGTKLTVL
# Columns and labels:
# [1] = target: AIP1 (Staphylococcus aureus); test: cell-based or functional assay
# [2] = target: AIP4 (Staphylococcus aureus); test: cell-based or functional assay
binder,measurement,setting,value
B1,"Inhibition of AIP1 QS (IC50; nM), agr-driven YFP reporter strain USA300-LAC",[1],91.1 nM
same,"Inhibition of AIP4 QS (IC50; nM), agr-driven YFP reporter strain MnTG",[2],53.5 nM
B2,"Inhibition of AIP1 QS (IC50; nM), agr-driven YFP reporter strain USA300-LAC",[1],110 nM
same,"Inhibition of AIP4 QS (IC50; nM), agr-driven YFP reporter strain MnTG",[2],86 nM
